Results on 6 molecules are retold here after patent US9816117B2, “Methods, reagents and cells for biosynthesizing compounds” (INVISTA North America S.á r.l., priority 2014, dated 2017).

Assay type in all cases: biochemical
Series [1] can be described thus: ω-transaminase enzyme activity assay, reverse direction (6-aminohexanoate to adipate semialdehyde). Particulars: cell free extract; 10 mM 6-aminohexanoate, 10 mM pyruvate; 25° C., 24 h; against empty vector control (FIG. 17). On the procedure:
(§1) A nucleotide sequence encoding a His-tag was added to the genes from Chromobacterium violaceum, Pseudomonas aeruginosa, Pseudomonas syringae, Rhodobacter sphaeroides, and Vibrio fluvialis encoding the ω-transaminases of SEQ ID NOs: 7, 8, 9, 10 and 12, respectively (see FIG. 9) such that N-terminal HIS tagged w-transaminases could be produced. Each of the resulting modified genes was cloned into a pET21a expression vector under control of the T7 promoter and each expression vector was transformed into a BL21[DE3] E. coli host. The resulting recombinant E. coli strains were cultivated at 37° C. in a 250 mL shake flask culture containing 50 mL LB media and antibiotic selection pressure, with shaking at 230 rpm. Each culture was induced overnight at 16° C. using 1 mM IPTG.
(§2) The pellet from each induced shake flask culture was harvested via centrifugation. Each pellet was resuspended and lysed via sonication. The cell debris was separated from the supernatant via centrifugation and the cell free extract was used immediately in enzyme activity assays.
Enzyme activity assays in the reverse direction (i.e., 6-aminohexanoate to adipate semialdehyde) were performed in a buffer composed of a final concentration of 50 mM HEPES buffer (pH=7.5), 10 mM 6-aminohexanoate, 10 mM pyruvate and 100 μM pyridoxyl 5′ phosphate. Each enzyme activity assay reaction was initiated by adding cell free extract of the ω-transaminase gene product or the empty vector control to the assay buffer containing the 6-aminohexanoate and incubated at 25° C. for 24 h, with shaking at 250 rpm. The formation of L-alanine from pyruvate was quantified via RP-HPLC.

The nature of series [2]: ω-transaminase enzyme activity assay, forward direction (adipate semialdehyde to 6-aminohexanoate). Particulars: cell free extract; 10 mM adipate semialdehyde, 10 mM L-alanine; 25° C., 4 h; against empty vector control (FIG. 18). As to the method: as §1, §2
Enzyme activity in the forward direction (i.e., adipate semialdehyde to 6-aminohexanoate) was confirmed for the transaminases of SEQ ID NO 7, SEQ ID NO 8, SEQ ID NO 9, SEQ ID NO 10 and SEQ ID NO 12. Enzyme activity assays were performed in a buffer composed of a final concentration of 50 mM HEPES buffer (pH=7.5), 10 mM adipate semialdehyde, 10 mM L-alanine and 100 μM pyridoxyl 5′ phosphate. Each enzyme activity assay reaction was initiated by adding a cell free extract of the ω-transaminase gene product or the empty vector control to the assay buffer containing the adipate semialdehyde and incubated at 25° C. for 4 h, with shaking at 250 rpm. The formation of pyruvate was quantified via RP-HPLC.

Series [3] is described as follows: carboxylate reductase enzyme activity assay (adipate to adipate semialdehyde). Conditions: purified enzyme enhanced by sfp gene product; 2 mM adipate; room temperature, 20 min; against empty vector control (FIG. 12). On the procedure:
A sequence encoding a HIS-tag was added to the genes from Segniliparus rugosus and Segniliparus rotundus that encode the carboxylate reductases of SEQ ID NOs: 4 and 6, respectively (see FIG. 9), such that N-terminal HIS tagged carboxylate reductases could be produced. Each of the modified genes was cloned into a pET Duet expression vector along with a sfp gene encoding a HIS-tagged phosphopantetheine transferase from Bacillus subtilis, both under the T7 promoter. Each expression vector was transformed into a BL21[DE3] E. coli host and the resulting recombinant E. coli strains were cultivated at 37° C. in a 250 mL shake flask culture containing 50 mL LB media and antibiotic selection pressure, with shaking at 230 rpm. Each culture was induced overnight at 37° C. using an auto-induction media.
The pellet from each induced shake flask culture was harvested via centrifugation. Each pellet was resuspended and lysed via sonication, and the cell debris was separated from the supernatant via centrifugation. […]
Enzyme activity assays (i.e., from adipate to adipate semialdehyde) were performed in triplicate in a buffer composed of a final concentration of 50 mM HEPES buffer (pH=7.5), 2 mM adipate, 10 mM MgCl2, 1 mM ATP and 1 mM NADPH. […] The consumption of NADPH was monitored by absorbance at 340 nm.

Consider “SEQ ID NO 10: Rhodobacter sphaeroides ω-transaminase (Genbank Accession No. ABA81135.1)”, for which the “ω-transaminase activity: acceptance of 6-aminohexanoate as substrate (formation of L-alanine from pyruvate, RP-HPLC)” value in series [1] is reported as “accepted 6-aminohexanote as substrate”. In addition, in series [2], the “ω-transaminase activity: acceptance of adipate semialdehyde as substrate (formation of pyruvate, RP-HPLC)” value is on record as “accepted adipate semialdehyde as substrate”.

B1: SEQ ID NO 8: Pseudomonas aeruginosa ω-transaminase (Genbank Accession No. AAG08191.1) (protein, listed as Pseudomonas aeruginosa)
chain: MNARLHATSPLGDADLVRADQAHYMHGYHVFDDHRVNGSLNIAAGDGAYIYDTAGNRYLDAVGGMWCTNIGLGREEMARTVAEQTRLLAYSNPFCDMANPRAIELCRKLAELAPGDLDHVFLTTGGSTAVDTAIRLMHYYQNCRGKRAKKHVITRINAYHGSTFLGMSLGGKSADRPAEFDFLDERIHHLACPYYYRAPEGLGEAEFLDGLVDEFERKILELGADRVGAFISEPVFGSGGVIVPPAGYHRRMWELCQRYDVLYISDEVVTSFGRLGHFFASQAVFGVQPDIILTAKGLTSGYQPLGACIFSRRIWEVIAEPDKGRCFSHGFTYSGHPVACAAALKNIEIIEREGLLAHADEVGRYFEERLQSLRDLPIVGDVRGMRFMACVEFVADKASKALFPESLNIGEWVHLRAQKRGLLVRPIVHLNVMSPPLILTREQVDTVVRVLRESIEETVEDLVRAGHR
Take B1: the “ω-transaminase activity: acceptance of adipate semialdehyde as substrate (formation of pyruvate, RP-HPLC)” value in series [2] is listed as “accepted adipate semialdehyde as substrate”.

B2: SEQ ID NO 7: Chromobacterium violaceum ω-transaminase (Genbank Accession No. AAQ59697.1) (protein, listed as Chromobacterium violaceum)
chain: MQKQRTTSQWRELDAAHHLHPFTDTASLNQAGARVMTRGEGVYLWDSEGNKIIDGMAGLWCVNVGYGRKDFAEAARRQMEELPFYNTFFKTTHPAVVELSSLLAEVTPAGFDRVFYTNSGSESVDTMIRMVRRYWDVQGKPEKKTLIGRWNGYHGSTIGGASLGGMKYMHEQGDLPIPGMAHIEQPWWYKHGKDMTPDEFGVVAARWLEEKILEIGADKVAAFVGEPIQGAGGVIVPPATYWPEIERICRKYDVLLVADEVICGFGRTGEWFGHQHFGFQPDLFTAAKGLSSGYLPIGAVFVGKRVAEGLIAGGDFNHGFTYSGHPVCAAVAHANVAALRDEGIVQRVKDDIGPYMQKRWRETFSRFEHVDDVRGVGMVQAFTLVKNKAKRELFPDFGEIGTLCRDIFFRNNLIMRACGDHIVSAPPLVMTRAEVDEMLAVAERCLEEFEQTLKARGLA
In the case of B2, in series [1], the “ω-transaminase activity: acceptance of 6-aminohexanoate as substrate (formation of L-alanine from pyruvate, RP-HPLC)” value was “accepted 6-aminohexanote as substrate”. The “ω-transaminase activity: acceptance of adipate semialdehyde as substrate (formation of pyruvate, RP-HPLC)” value in series [2] is reported as “accepted adipate semialdehyde as substrate”.

B3: SEQ ID NO 12: Vibrio Fluvialis ω-transaminase (Genbank Accession No. AEA39183.1) (protein)
chain: MNKPQSWEARAETYSLYGFTDMPSLHQRGTVVVTHGEGPYIVDVNGRRYLDANSGLWNMVAGFDHKGLIDAAKAQYERFPGYHAFFGRMSDQTVMLSEKLVEVSPFDSGRVFYTNSGSEANDTMVKMLWFLHAAEGKPQKRKILTRWNAYHGVTAVSASMTGKPYNSVFGLPLPGFVHLTCPHYWRYGEEGETEEQFVARLARELEETIQREGADTIAGFFAEPVMGAGGVIPPAKGYFQAILPILRKYDIPVISDEVICGFGRTGNTWGCVTYDFTPDAIISSKNLTAGFFPMGAVILGPELSKRLETAIEAIEEFPHGFTASGHPVGCAIALKAIDVVMNEGLAENVRRLAPRFEERLKHIAERPNIGEYRGIGFMWALEAVKDKASKTPFDGNLSVSERIANTCTDLGLICRPLGQSVVLCPPFILTEAQMDEMFDKLEKALDKVFAEVA
modifications: Vibrio Fluvialis
B3: the “ω-transaminase activity: acceptance of 6-aminohexanoate as substrate (formation of L-alanine from pyruvate, RP-HPLC)” value in series [1] was “accepted 6-aminohexanote as substrate”. Also, in series [2], the “ω-transaminase activity: acceptance of adipate semialdehyde as substrate (formation of pyruvate, RP-HPLC)” value was “accepted adipate semialdehyde as substrate”.

B4: SEQ ID NO 4: Segniliparus rugosus carboxylate reductase (Genbank Accession No. EFV11917.1) (protein, listed as Segniliparus rugosus)
chain: MGDGEERAKRFFQRIGELSATDPQFAAAAPDPAVVEAVSDPSLSFTRYLDTLMRGYAERPALAHRVGAGYETISYGELWARVGAIAAAWQADGLAPGDFVATVGFTSPDYVAVDLAAARSGLVSVPLQAGASLAQLVGILEETEPKVLAASASSLEGAVACALAAPSVQRLVVFDLRGPDASESAADERRGALADAEEQLARAGRAVVVETLADLAARGEALPEAPLFEPAEGEDPLALLIYTSGSTGAPKGAMYSQRLVSQLWGRTPVVPGMPNISLHYMPLSHSYGRAVLAGALSAGGTAHFTANSDLSTLFEDIALARPTFLALVPRVCEMLFQESQRGQDVAELRERVLGGRLLVAVCGSAPLSPEMRAFMEEVLGFPLLDGYGSTEALGVMRNGIIQRPPVIDYKLVDVPELGYRTTDKPYPRGELCIRSTSLISGYYKRPEITAEVFDAQGYYKTGDVMAEIAPDHLVYVDRSKNVLKLSQGEFVAVAKLEAAYGTSPYVKQIFVYGNSERSFLLAVVVPNAEVLGARDQEEAKPLIAASLQKIAKEAGLQSYEVPRDFLIETEPFTTQNGLLSEVGKLLRPKLKARYGEALEARYDEIAHGQADELRALRDGAGQRPVVETVVRAAVAISGSEGAEVGPEANFADLGGDSLSALSLANLLHDVFEVEVPVRIIIGPTASLAGIAKHIEAERAGASAPTAASVHGAGATRIRASELTLEKFLPEDLLAAAKGLPAADQVRTVLLTGANGWLGRFLALEQLERLARSGQDGGKLICLVRGKDAAAARRRIEETLGTDPALAARFAELAEGRLEVVPGDVGEPKFGLDDAAWDRLAEEVDVIVHPAALVNHVLPYHQLFGPNVVGTAEIIRLAITAKRKPVTYLSTVAVAAGVEPSSFEEDGDIRAVVPERPLGDGYANGYGNSKWAGEVLLREAHELVGLPVAVFRSDMILAHTRYTGQLNVPDQFTRLVLSLLATGIAPKSFYQQGAAGERQRAHYDGIPVDFTAEAITTLGAEPSWFDGGAGFRSFDVFNPHHDGVGLDEFVDWLIEAGHPISRIDDHKEWFARFETAVRGLPEAQRQHSLLPLLRAYSFPHPPVDGSVYPTGKFQGAVKAAQVGSDHDVPHLGKALIVKYADDLKALGLL
For B4, the “carboxylate reductase activity: acceptance of adipate as substrate (consumption of NADPH, absorbance at 340 nm)” value in series [3] is “accepted adipate as substrate”.

B5: SEQ ID NO 9: Pseudomonas syringae ω-transaminase (Genbank Accession No. AAY39893.1) (protein, listed as Pseudomonas syringae)
chain: MSANNPQTLEWQALSSEHHLAPFSDYKQLKEKGPRIITRAEGVYLWDSEGNKILDGMSGLWCVAIGYGREELADAASKQMRELPYYNLFFQTAHPPVLELAKAISDIAPEGMNHVFFTGSGSEGNDTMLRMVRHYWALKGQPNKKTIISRVNGYHGSTVAGASLGGMTYMHEQGDLPIPGVVHIPQPYWFGEGGDMTPDEFGIWAAEQLEKKILELGVENVGAFIAEPIQGAGGVIVPPDSYWPKIKEILSRYDILFAADEVICGFGRTSEWFGSDFYGLRPDMMTIAKGLTSGYVPMGGLIVRDEIVAVLNEGGDFNHGFTYSGHPVAAAVALENIRILREEKIVERVRSETAPYLQKRLRELSDHPLVGEVRGVGLLGAIELVKDKTTRERYTDKGAGMICRTFCFDNGLIMRAVGDTMIIAPPLVISFAQIDELVEKARTCLDLTLAVLQG
For B5, in series [1], the “ω-transaminase activity: acceptance of 6-aminohexanoate as substrate (formation of L-alanine from pyruvate, RP-HPLC)” value was “accepted 6-aminohexanote as substrate”. In series [2], the “ω-transaminase activity: acceptance of adipate semialdehyde as substrate (formation of pyruvate, RP-HPLC)” value is given as “accepted adipate semialdehyde as substrate”.
